Assay results: PMC1182371, “Zinc-finger domains of the transcriptional repressor KLF15 bind multiple sites in rhodopsin and IRBP promoters including the CRS-1 and G-rich repressor elements”

Target: KLF15-ZF-GST (human, UniProt Q9UIH9 294-416)
Experiment: competition; 50x, 250x vs bRho29 probe; also hRho29 probe (data not shown); EMSA: 4 mM HEPES, 5 mM EGTA, 100 mM KCl, 0.25 mM ZnCl2, 0.02% NP40, 0.1 M DTT, 4% glycerol, 90-120 min on ice, pH not stated; footprinting: same buffer, DNase I at room temperature 1 min
Conditions: protein: recombinant; tags: N-terminal GST; label: unlabeled; GG ends end-filled

Chain of KLF15-ZF-GST (Q9UIH9 294-416): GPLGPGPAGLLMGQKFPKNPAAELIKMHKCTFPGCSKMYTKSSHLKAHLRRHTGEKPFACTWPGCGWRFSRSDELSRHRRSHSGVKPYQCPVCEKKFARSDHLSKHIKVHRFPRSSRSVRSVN

Binder | binding result
IRBP1 (dsDNA) DNA 1: GGACAGGATTAAAGGCTTACTGGAG DNA 2: CTCCAGTAAGCCTTTAATCCTGTCC | no binding
IRBP2 (dsDNA) DNA 1: GGACTTGTCAGGGCCTTTA DNA 2: TAAAGGCCCTGACAAGTCC | no binding
